Measured values taken from patent EP4692114A1, “CALCITONIN ANALOGUE, AND DERIVATIVE THEREOF AND USE THEREOF” (Hangzhou Sciwind Biosciences Co., Ltd., priority 2023, dated 2024).
*1 amine or outer side, *2 acyl side, *3 side chain or, on linkers, in order; H or OH if unused. The star is where a group is joined. C22 diacid = O=C(O)CCCCCCCCCCCCCCCCCCCCC(=O)*; C20 diacid = O=C(O)CCCCCCCCCCCCCCCCCCC(=O)*; γGlu = O=C(O)[C@H](CCC(=O)[*:2])N[*:1]; AEEA = NCCOCCOCC(=O)O

B1: calcitonin derivative M18 (peptide)
peptide: {C20 diacid-γGlu}-ASQLSTAVLGRLSQELHRLQDLPRTDVGSGSP-NH2
SMILES: CC(C)C[C@H](NC(=O)[C@H](CCCNC(=N)N)NC(=O)CNC(=O)[C@H](CC(C)C)NC(=O)[C@@H](NC(=O)[C@H](C)NC(=O)[C@@H](NC(=O)[C@H](CO)NC(=O)[C@H](CC(C)C)NC(=O)[C@H](CCC(N)=O)NC(=O)[C@H](CO)NC(=O)[C@H](C)NC(=O)CC[C@H](NC(=O)CCCCCCCCCCCCCCCCCCC(=O)O)C(=O)O)[C@@H](C)O)C(C)C)C(=O)N[C@@H](CO)C(=O)N[C@@H](CCC(N)=O)C(=O)N[C@@H](CCC(=O)O)C(=O)N[C@@H](CC(C)C)C(=O)N[C@@H](Cc1c[nH]cn1)C(=O)N[C@@H](CCCNC(=N)N)C(=O)N[C@@H](CC(C)C)C(=O)N[C@@H](CCC(N)=O)C(=O)N[C@@H](CC(=O)O)C(=O)N[C@@H](CC(C)C)C(=O)N1CCC[C@H]1C(=O)N[C@@H](CCCNC(=N)N)C(=O)N[C@H](C(=O)N[C@@H](CC(=O)O)C(=O)N[C@H](C(=O)NCC(=O)N[C@@H](CO)C(=O)NCC(=O)N[C@@H](CO)C(=O)N1CCC[C@H]1C(N)=O)C(C)C)[C@@H](C)O
B2: calcitonin derivative M35 (peptide)
peptide: {C20 diacid-γGlu}-RSQLSTDVLGRLSQELHRLQDYPRTDVGSGSP-NH2
SMILES: CC(C)C[C@H](NC(=O)[C@H](CCCNC(=N)N)NC(=O)CNC(=O)[C@H](CC(C)C)NC(=O)[C@@H](NC(=O)[C@H](CC(=O)O)NC(=O)[C@@H](NC(=O)[C@H](CO)NC(=O)[C@H](CC(C)C)NC(=O)[C@H](CCC(N)=O)NC(=O)[C@H](CO)NC(=O)[C@H](CCCNC(=N)N)NC(=O)CC[C@H](NC(=O)CCCCCCCCCCCCCCCCCCC(=O)O)C(=O)O)[C@@H](C)O)C(C)C)C(=O)N[C@@H](CO)C(=O)N[C@@H](CCC(N)=O)C(=O)N[C@@H](CCC(=O)O)C(=O)N[C@@H](CC(C)C)C(=O)N[C@@H](Cc1c[nH]cn1)C(=O)N[C@@H](CCCNC(=N)N)C(=O)N[C@@H](CC(C)C)C(=O)N[C@@H](CCC(N)=O)C(=O)N[C@@H](CC(=O)O)C(=O)N[C@@H](Cc1ccc(O)cc1)C(=O)N1CCC[C@H]1C(=O)N[C@@H](CCCNC(=N)N)C(=O)N[C@H](C(=O)N[C@@H](CC(=O)O)C(=O)N[C@H](C(=O)NCC(=O)N[C@@H](CO)C(=O)NCC(=O)N[C@@H](CO)C(=O)N1CCC[C@H]1C(N)=O)C(C)C)[C@@H](C)O
B3: calcitonin derivative M52 (peptide)
peptide: {C20 diacid}-EASQLSTAVLGRLSEELHRLQDYPRTDVGSGSP-NH2
SMILES: CC(C)C[C@H](NC(=O)[C@H](CCCNC(=N)N)NC(=O)CNC(=O)[C@H](CC(C)C)NC(=O)[C@@H](NC(=O)[C@H](C)NC(=O)[C@@H](NC(=O)[C@H](CO)NC(=O)[C@H](CC(C)C)NC(=O)[C@H](CCC(N)=O)NC(=O)[C@H](CO)NC(=O)[C@H](C)NC(=O)[C@H](CCC(=O)O)NC(=O)CCCCCCCCCCCCCCCCCCC(=O)O)[C@@H](C)O)C(C)C)C(=O)N[C@@H](CO)C(=O)N[C@@H](CCC(=O)O)C(=O)N[C@@H](CCC(=O)O)C(=O)N[C@@H](CC(C)C)C(=O)N[C@@H](Cc1c[nH]cn1)C(=O)N[C@@H](CCCNC(=N)N)C(=O)N[C@@H](CC(C)C)C(=O)N[C@@H](CCC(N)=O)C(=O)N[C@@H](CC(=O)O)C(=O)N[C@@H](Cc1ccc(O)cc1)C(=O)N1CCC[C@H]1C(=O)N[C@@H](CCCNC(=N)N)C(=O)N[C@H](C(=O)N[C@@H](CC(=O)O)C(=O)N[C@H](C(=O)NCC(=O)N[C@@H](CO)C(=O)NCC(=O)N[C@@H](CO)C(=O)N1CCC[C@H]1C(N)=O)C(C)C)[C@@H](C)O
B4: calcitonin derivative M20 (peptide)
peptide: {C20 diacid-γGlu}-ASQLSTAVLGRLSQELHRLQDYPRTDVGAESP-NH2
SMILES: CC(C)C[C@H](NC(=O)[C@H](CCCNC(=N)N)NC(=O)CNC(=O)[C@H](CC(C)C)NC(=O)[C@@H](NC(=O)[C@H](C)NC(=O)[C@@H](NC(=O)[C@H](CO)NC(=O)[C@H](CC(C)C)NC(=O)[C@H](CCC(N)=O)NC(=O)[C@H](CO)NC(=O)[C@H](C)NC(=O)CC[C@H](NC(=O)CCCCCCCCCCCCCCCCCCC(=O)O)C(=O)O)[C@@H](C)O)C(C)C)C(=O)N[C@@H](CO)C(=O)N[C@@H](CCC(N)=O)C(=O)N[C@@H](CCC(=O)O)C(=O)N[C@@H](CC(C)C)C(=O)N[C@@H](Cc1c[nH]cn1)C(=O)N[C@@H](CCCNC(=N)N)C(=O)N[C@@H](CC(C)C)C(=O)N[C@@H](CCC(N)=O)C(=O)N[C@@H](CC(=O)O)C(=O)N[C@@H](Cc1ccc(O)cc1)C(=O)N1CCC[C@H]1C(=O)N[C@@H](CCCNC(=N)N)C(=O)N[C@H](C(=O)N[C@@H](CC(=O)O)C(=O)N[C@H](C(=O)NCC(=O)N[C@@H](C)C(=O)N[C@@H](CCC(=O)O)C(=O)N[C@@H](CO)C(=O)N1CCC[C@H]1C(N)=O)C(C)C)[C@@H](C)O
B5: calcitonin derivative M67 (peptide)
peptide: {C22 diacid-γGlu-AEEA-AEEA-AEEA-AEEA}-ASQLSTAVLGRLSEELHRLQDYPRTDVGSGSP-NH2
SMILES: CC(C)C[C@H](NC(=O)[C@H](CCCNC(=N)N)NC(=O)CNC(=O)[C@H](CC(C)C)NC(=O)[C@@H](NC(=O)[C@H](C)NC(=O)[C@@H](NC(=O)[C@H](CO)NC(=O)[C@H](CC(C)C)NC(=O)[C@H](CCC(N)=O)NC(=O)[C@H](CO)NC(=O)[C@H](C)NC(=O)COCCOCCNC(=O)COCCOCCNC(=O)COCCOCCNC(=O)COCCOCCNC(=O)CC[C@H](NC(=O)CCCCCCCCCCCCCCCCCCCCC(=O)O)C(=O)O)[C@@H](C)O)C(C)C)C(=O)N[C@@H](CO)C(=O)N[C@@H](CCC(=O)O)C(=O)N[C@@H](CCC(=O)O)C(=O)N[C@@H](CC(C)C)C(=O)N[C@@H](Cc1c[nH]cn1)C(=O)N[C@@H](CCCNC(=N)N)C(=O)N[C@@H](CC(C)C)C(=O)N[C@@H](CCC(N)=O)C(=O)N[C@@H](CC(=O)O)C(=O)N[C@@H](Cc1ccc(O)cc1)C(=O)N1CCC[C@H]1C(=O)N[C@@H](CCCNC(=N)N)C(=O)N[C@H](C(=O)N[C@@H](CC(=O)O)C(=O)N[C@H](C(=O)NCC(=O)N[C@@H](CO)C(=O)NCC(=O)N[C@@H](CO)C(=O)N1CCC[C@H]1C(N)=O)C(C)C)[C@@H](C)O
B6: calcitonin derivative M37 (peptide)
peptide: {C20 diacid-γGlu}-KSQLSTDVLGRLSQELHRLQDYPRTDVGSGSP-NH2
SMILES: CC(C)C[C@H](NC(=O)[C@H](CCCNC(=N)N)NC(=O)CNC(=O)[C@H](CC(C)C)NC(=O)[C@@H](NC(=O)[C@H](CC(=O)O)NC(=O)[C@@H](NC(=O)[C@H](CO)NC(=O)[C@H](CC(C)C)NC(=O)[C@H](CCC(N)=O)NC(=O)[C@H](CO)NC(=O)[C@H](CCCCN)NC(=O)CC[C@H](NC(=O)CCCCCCCCCCCCCCCCCCC(=O)O)C(=O)O)[C@@H](C)O)C(C)C)C(=O)N[C@@H](CO)C(=O)N[C@@H](CCC(N)=O)C(=O)N[C@@H](CCC(=O)O)C(=O)N[C@@H](CC(C)C)C(=O)N[C@@H](Cc1c[nH]cn1)C(=O)N[C@@H](CCCNC(=N)N)C(=O)N[C@@H](CC(C)C)C(=O)N[C@@H](CCC(N)=O)C(=O)N[C@@H](CC(=O)O)C(=O)N[C@@H](Cc1ccc(O)cc1)C(=O)N1CCC[C@H]1C(=O)N[C@@H](CCCNC(=N)N)C(=O)N[C@H](C(=O)N[C@@H](CC(=O)O)C(=O)N[C@H](C(=O)NCC(=O)N[C@@H](CO)C(=O)NCC(=O)N[C@@H](CO)C(=O)N1CCC[C@H]1C(N)=O)C(C)C)[C@@H](C)O

molecular target: T1, human amylin receptor (AMY3) on CHO-K1/Gal5/AMY3 cells (human, UniProt P30988 25-474; O60896 24-148); assay: cell-based or functional assay
T1 sequence (looked up) 1: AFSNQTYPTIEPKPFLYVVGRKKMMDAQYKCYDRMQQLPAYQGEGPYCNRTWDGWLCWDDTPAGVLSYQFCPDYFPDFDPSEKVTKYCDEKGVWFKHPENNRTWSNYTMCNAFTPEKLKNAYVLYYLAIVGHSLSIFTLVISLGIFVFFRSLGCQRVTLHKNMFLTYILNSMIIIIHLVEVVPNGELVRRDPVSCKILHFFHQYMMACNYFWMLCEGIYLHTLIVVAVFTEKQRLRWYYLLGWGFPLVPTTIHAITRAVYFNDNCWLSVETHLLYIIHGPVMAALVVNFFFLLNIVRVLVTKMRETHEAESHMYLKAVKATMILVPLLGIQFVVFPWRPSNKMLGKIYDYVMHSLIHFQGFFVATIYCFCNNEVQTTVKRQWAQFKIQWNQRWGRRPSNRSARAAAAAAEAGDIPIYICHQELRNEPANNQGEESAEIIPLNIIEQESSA
T1 sequence (looked up) 2: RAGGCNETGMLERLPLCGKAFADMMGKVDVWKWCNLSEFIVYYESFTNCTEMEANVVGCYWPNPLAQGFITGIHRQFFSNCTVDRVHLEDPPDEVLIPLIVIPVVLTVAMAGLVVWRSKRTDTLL

| EC50/nM, CRE-luciferase in amylin receptor/CRE-luc CHO cells | Binder |
| --- | --- |
| 0.028 nM | B1 |
| 0.037 nM | B2 |
| 0.017 nM | B3 |
| 0.017 nM | B4 |
| 0.017 nM | B5 |
| 0.052 nM | B6 |
